Data taken from US8709506B2, “Synergistic compositions for the treatment of topical viral infections” (Vitro Bio Sarl, priority 2010, dated 2014).

Experiments:
herpes virus = assay type: cell-based; details: for % cell death after 72 h TCID50 herpes virus infection: protease 0.5 μg/ml, Vero cells, serum free medium, virus control 56.0 ± 2.3
influenza virus = assay type: cell-based; details: for % cell death after 72 h TCID50 influenza virus infection: protease 0.5 μg/ml, MDCK cells, serum free medium, virus control 48.21 ± 6.77

Molecule	% increase in herpes virus growth compared to controls (herpes virus)	% cell death after 72 h TCID50 herpes virus infection (herpes virus)	% increase in influenza viral growth compared to virus control (influenza virus)	% cell death after 72 h TCID50 influenza virus infection (influenza virus)
MMP-12: purified human MMP-12 (elastase), AnaSpec (protein, UniProt P39900 106-470, looked up) Macrophage metalloelastase: GPVWRKHYITYRINNYTPDMNREDVDYAIRKAFQVWSNVTPLKFSKINTGMADILVVFARGAHGDFHAFDGKGGILAHAFGPGSGIGGDAHFDEDEFWTTHSGGTNLFLTAVHEIGHSLGLGHSSDPKAVMFPTYKYVDINTFRLSADDIRGIQSLYGDPKENQRLPNPDNSEPALCDPNLSFDAVTTVGNKIFFFKDRFFWLKVSERPKTSVNLISSLWPTLPSGIEAAYEIEARNQVFLFKDDKYWLISNLRPEPNYPKSIHSFGFPNFVKKIDAAVFNPRFYRTYFFVDNQYWRYDERRQMMDPGYPKLITKNFQGIGPKIDAVFYSKNKYYYFFQGSNQFEYDFLLQRITKTLKSNSWFGC	+19.86%	67.12 ± 5.91%	+1.41%	48.89 ± 4.39%
MMP-2: purified human MMP 2 (gelatinase A), AnaSpec (protein, UniProt P08253 110-660, looked up) 72 kDa type IV collagenase: YNFFPRKPKWDKNQITYRIIGYTPDLDPETVDDAFARAFQVWSDVTPLRFSRIHDGEADIMINFGRWEHGDGYPFDGKDGLLAHAFAPGTGVGGDSHFDDDELWTLGEGQVVRVKYGNADGEYCKFPFLFNGKEYNSCTDTGRSDGFLWCSTTYNFEKDGKYGFCPHEALFTMGGNAEGQPCKFPFRFQGTSYDSCTTEGRTDGYRWCGTTEDYDRDKKYGFCPETAMSTVGGNSEGAPCVFPFTFLGNKYESCTSAGRSDGKMWCATTANYDDDRKWGFCPDQGYSLFLVAAHEFGHAMGLEHSQDPGALMAPIYTYTKNFRLSQDDIKGIQELYGASPDIDLGTGPTPTLGPVTPEICKQDIVFDGIAQIRGEIFFFKDRFIWRTVTPRDKPMGPLLVATFWPELPEKIDAVYEAPQEEKAVFFAGNEYWIYSASTLERGYPKPLTSLGLPPDVQRVDAAFNWSKNKKTYIFAGDKFWRYNEVKKKMDPGFPKLIADAWNAIPDNLDAVVDLQGGGHSYFFKGAYYLKLENQSLKSVKFGSIKSDWLGC	+31.43%	73.6 ± 6.20%	+49.14%	71.90 ± 8.21%
